Test results taken from US20220031820.

System: T1, recombinant syndecan-1
T1 sequence (P18827 whole entry, species assumed, looked up): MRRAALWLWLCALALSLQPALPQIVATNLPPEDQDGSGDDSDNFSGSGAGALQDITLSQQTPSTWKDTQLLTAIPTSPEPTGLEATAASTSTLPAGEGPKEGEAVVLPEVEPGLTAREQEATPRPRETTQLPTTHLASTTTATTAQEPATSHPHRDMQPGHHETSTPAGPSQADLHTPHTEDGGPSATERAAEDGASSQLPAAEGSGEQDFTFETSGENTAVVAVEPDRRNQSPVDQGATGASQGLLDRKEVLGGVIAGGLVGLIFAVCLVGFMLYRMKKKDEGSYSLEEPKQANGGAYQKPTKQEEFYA

| Protein | in vitro syndecan-1 cleavage assay (coomassie gel); GzmA 500 nM, syndecan-1 0.7 ug | in vitro syndecan-1 cleavage assay (coomassie gel); GzmK 500 nM, syndecan-1 0.7 ug |
| --- | --- | --- |
| recombinant GzmA (enzyme, UniProt P12544 29-262, looked up, species assumed) Granzyme A: IIGGNEVTPHSRPYMVLLSLDRKTICAGALIAKDWVLTAAHCNLNKRSQVILGAHSITREEPTKQIMLVKKEFPYPCYDPATREGDLKLLQLMEKAKINKYVTILHLPKKGDDVKPGTMCQVAGWGRTHNSASWSDTLREVNITIIDRKVCNDRNHYNFNPVIGMNMVCAGSLRGGRDSCNGDSGSPLLCEGVFRGVTSFGLENKCGDPRGPGVYILLSKKHLNWIIMTIKGAV | syndecan-1 was cleaved by all three granzymes | – |
| recombinant GzmK (in vitro syndecan-1 cleavage assay) (enzyme, UniProt P49863 27-264, looked up, species assumed) Granzyme K: IIGGKEVSPHSRPFMASIQYGGHHVCGGVLIDPQWVLTAAHCQYRFTKGQSPTVVLGAHSLSKNEASKQTLEIKKFIPFSRVTSDPQSNDIMLVKLQTAAKLNKHVKMLHIRSKTSLRSGTKCKVTGWGATDPDSLRPSDTLREVTVTVLSRKLCNSQSYYNGDPFITKDMVCAGDAKGQKDSCKGDSGGPLICKGVFHAIVSGGHECGVATKPGIYTLLTKKYQTWIKSNLVPPHTN | – | syndecan-1 was cleaved by all three granzymes |
